Assay results from IntAct's records for PubMed 20696938.

B1: DNA topoisomerase 4 subunit A (Escherichia coli (strain K12)), P0AFI2 (parent)
chain: MSDMAERLALHEFTENAYLNYSMYVIMDRALPFIGDGLKPVQRRIVYAMSELGLNASAKFKKSARTVGDVLGKYHPHGDSACYEAMVLMAQPFSYRYPLVDGQGNWGAPDDPKSFAAMRYTESRLSKYSELLLSELGQGTADWVPNFDGTLQEPKMLPARLPNILLNGTTGIAVGMATDIPPHNLREVAQAAIALIDQPKTTLDQLLDIVQGPDYPTEAEIITSRAEIRKIYENGRGSVRMRAVWKKEDGAVVISALPHQVSGARVLEQIAAQMRNKKLPMVDDLRDESDHENPTRLVIVPRSNRVDMDQVMNHLFATTDLEKSYRINLNMIGLDGRPAVKNLLEILSEWLVFRRDTVRRRLNYRLEKVLKRLHILEGLLVAFLNIDEVIEIIRNEDEPKPALMSRFGLTETQAEAILELKLRHLAKLEEMKIRGEQSELEKERDQLQGILASERKMNNLLKKELQADAQAYGDDRRSPLQEREEAKAMSEHDMLPSEPVTIVLSQMGWVRSAKGHDIDAPGLNYKAGDSFKAAVKGKSNQPVVFVDSTGRSYAIDPITLPSARGQGEPLTGKLTLPPGATVDHMLMESDDQKLLMASDAGYGFVCTFNDLVARNRAGKALITLPENAHVMPPVVIEDASDMLLAITQAGRMLMFPVSDLPQLSKGKGNKIINIPSAEAARGEDGLAQLYVLPPQSTLTIHVGKRKIKLRPEELQKVTGERGRRGTLMRGLQRIDRVEIDSPRRASSGDSEE
partner: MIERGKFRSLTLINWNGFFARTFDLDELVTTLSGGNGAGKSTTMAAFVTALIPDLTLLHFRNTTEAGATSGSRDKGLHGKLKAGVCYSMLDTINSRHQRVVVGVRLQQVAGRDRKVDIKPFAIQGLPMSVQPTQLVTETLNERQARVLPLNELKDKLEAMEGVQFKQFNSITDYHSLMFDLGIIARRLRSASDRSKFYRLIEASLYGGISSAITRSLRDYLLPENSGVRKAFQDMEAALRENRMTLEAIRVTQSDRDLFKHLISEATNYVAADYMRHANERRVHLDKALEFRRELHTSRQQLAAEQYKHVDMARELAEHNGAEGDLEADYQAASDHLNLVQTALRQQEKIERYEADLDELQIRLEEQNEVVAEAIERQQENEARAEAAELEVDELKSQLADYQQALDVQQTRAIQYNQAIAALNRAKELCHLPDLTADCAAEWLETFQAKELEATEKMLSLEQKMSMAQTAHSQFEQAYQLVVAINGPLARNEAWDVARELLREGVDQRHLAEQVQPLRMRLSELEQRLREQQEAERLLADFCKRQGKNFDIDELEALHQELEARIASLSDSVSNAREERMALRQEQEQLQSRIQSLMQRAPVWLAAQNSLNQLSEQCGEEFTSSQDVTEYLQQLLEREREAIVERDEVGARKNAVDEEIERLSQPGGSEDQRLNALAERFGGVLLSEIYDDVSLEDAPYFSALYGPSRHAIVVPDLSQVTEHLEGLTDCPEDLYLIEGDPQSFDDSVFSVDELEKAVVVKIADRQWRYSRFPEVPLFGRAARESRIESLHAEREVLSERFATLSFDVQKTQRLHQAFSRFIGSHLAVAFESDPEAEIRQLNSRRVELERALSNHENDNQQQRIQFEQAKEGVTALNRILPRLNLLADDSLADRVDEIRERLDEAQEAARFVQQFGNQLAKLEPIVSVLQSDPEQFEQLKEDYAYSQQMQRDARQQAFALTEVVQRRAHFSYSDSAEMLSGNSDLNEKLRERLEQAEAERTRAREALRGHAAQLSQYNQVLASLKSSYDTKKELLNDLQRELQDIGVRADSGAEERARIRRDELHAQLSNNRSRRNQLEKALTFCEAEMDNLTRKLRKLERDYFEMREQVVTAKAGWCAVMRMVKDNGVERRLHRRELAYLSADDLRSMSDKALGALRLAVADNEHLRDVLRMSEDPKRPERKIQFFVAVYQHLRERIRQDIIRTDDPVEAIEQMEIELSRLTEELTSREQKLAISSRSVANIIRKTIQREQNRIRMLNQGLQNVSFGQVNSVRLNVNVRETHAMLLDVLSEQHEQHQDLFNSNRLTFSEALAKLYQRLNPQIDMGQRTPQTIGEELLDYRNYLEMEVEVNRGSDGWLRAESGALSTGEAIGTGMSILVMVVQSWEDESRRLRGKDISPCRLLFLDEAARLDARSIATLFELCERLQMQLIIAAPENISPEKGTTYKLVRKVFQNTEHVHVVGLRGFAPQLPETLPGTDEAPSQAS

Variants of: B1
Conditions: with mukb_ecoli mukB

effect of a mutation on the interaction | Variant
disrupting interaction | R729A
disrupting interaction | R705E;R729A
disrupting interaction | R705E
